For 84 variants, reverse-splicing fitness results are on record in the RNAGym collection of RNA variant scans (doi:10.1093/molbev/msab373).

Sequences and labels used below:
B1: Azoarcus group I ribozyme (parent)
chain: GUGCCUUGCGCCGGGAAACCACGCAAGGGAUGGUGUCAAAUUCGGCGAAACCUAAGCGCCCGCCCGGGCGUAUGGCAACGCCGAGCCAAGCUUCGGCGCCUGCGCCGAUGAAGGUGUAGAGACUAGACGGCACCCACCUAAGGCAAACGCUAUGGUGAAGGCAUAGUCCAGGGAGUGGCGAAAGUCACACAAACCGG

This data set covers variants of B1. Kind of data set: reverse-splicing fitness (ratio to wild type); higher = more active; in vitro selection; Mg2+ level not given. The essentials:
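An in vitro group I ribozyme library with randomized positions was T7-transcribed and gel-purified. In triplicate, 10 pmol RNA in EPPS pH 7.5 was reacted with 50 pmoles of a 30-nt RNA substrate for 1 h at 37 °C across several added MgCl2 levels (1–48 mM), then stopped with EDTA. Products were reverse transcribed from a substrate-complementary primer, PCR-amplified and sequenced (HiSeq 4000). Fitness is a variant's read proportion after selection over that before, normalised to wild type.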
As for C82A A111U A120G A145C C150G C169U, the reverse-splicing fitness was 0.00766. As for A111G C150G C169G U176C, the figure is 0.00463; as for C82U A111U A145C C150G U176A, 0.00994. Under C82A A111C A120U A145C C150U C169U U176A stands 0.00329. As for C82A A111G A145U C150G C169U U176A, the figure is 0.00709; as for C82G A111U A120U A145U C150A C169G U176G, 0.00186; as for A111U A120U A145C C150G C169U U176A, 0.00301.

For the variant C82A A111U C150A C169A U176A, the reverse-splicing fitness is 0.0188. Under C150U C169U U176A stands 0.0877; under C82A A111C A120U A145C C150A U176C, 0.00528; under C82G A111G A120U C150U C169G U176C, 0.00412. As for C82G A111U A120C A145G C150G C169G, the reverse-splicing fitness is 0.00753.

With C82G A111G A120C C150A C169A U176C, the reverse-splicing fitness was 0.0204.

Consider A120G A145U C150U C169G U176A, for which the reverse-splicing fitness worked out at 0.157. Take A120G A145U C150G: the reverse-splicing fitness stood at 0.07. As for C82A A111U A145C, the figure is 0.28; as for C82U A111G A120U A145U C150A C169G U176G, 0.00148; as for C82U A111C A120C A145C C150A U176G, 0.00522. Under C82G A111U A145G C150A C169A stands 0.0112; under A111C A120U A145U C150G C169U U176A, 0.00284; under A111C A120G A145U C150A C169G U176G, 0.00467.

As for C82G A111U A120U A145G C150U C169A, the reverse-splicing fitness turned out to be 0.00699. As for A111U A120C C150A U176G, the figure is 0.0118; as for C82A A111G C150G C169A, 0.0102; as for C82U A145C C150G C169G U176A, 0.00879.

On to A111G A145U C150G C169A U176G, for which the reverse-splicing fitness was found to be 0.00461. As for C82G A120U A145C C150G C169G U176G, the figure is 0.00178; as for A111C A120C C150U C169G, 0.00843; as for C82G A111G A120C A145G C150U C169G, 0.00893. With C82A A111G A120C A145U C169A U176C, the reverse-splicing fitness was 0.0152. As for C82U A111G A120U C150G C169U U176G, the figure is 0.00234; as for C82A A111C A145U C150A U176G, 0.00868. For the variant C82U C150U, the reverse-splicing fitness amounted to 0.369.

Consider A111U A120U A145U C169G, for which the reverse-splicing fitness came out at 0.0519.

Regarding C82A A145U C150U U176A, the reverse-splicing fitness turned out to be 0.273. As for C82G A111U A120U A145U C150U C169A U176A, the figure is 0.00283; as for C82A A111G A120G A145U C169G U176G, 0.00452. Under A111C A120G A145U C150U C169U stands 0.106. Under C82G A120C A145U stands 0.21. Regarding C82U A120G A145C C169G U176C, the reverse-splicing fitness worked out at 0.0161. As for C82U A111U A120C C150A C169U U176G, the figure is 0.00688; as for C82U A120C A145U C150U U176A, 0.0328; as for A111U A120U C150A C169U U176A, 0.00638. On to C82G A111U A145C C150U C169A, for which the reverse-splicing fitness amounted to 0.00882. As for C82A A111G A120U C169U U176A, the figure is 0.00447; as for A120G A145G C150A C169U U176A, 0.0726. As for C82U A111U A120G A145C C150A U176C, the figure is 0.00836; as for C82A A111G A120G A145U C150G C169U U176A, 0.012; as for C82U A111C A120U C150A C169A U176C, 0.00354. Under A120C A145G C150U C169A stands 0.0324; under A111C A120U A145U C150G C169G U176C, 0.00291. For C82U C150A C169A U176G, the reverse-splicing fitness is 0.00489.

Consider C82U A111G A145C C150A C169A U176G, for which the reverse-splicing fitness turned out to be 0.00539. On to A111C A120U A145U C150A C169A U176G, for which the reverse-splicing fitness is 0.00209. As for C82A A111G A145U C150G C169G U176A, the figure is 0.00771; as for C82G A111G A120C C150U C169U, 0.0144; as for C82G A120U A145U C150A C169A U176C, 0.00199. Under C82G A145U C150G C169A U176C stands 0.0105; under C82U A120C A145U C150G C169U U176C, 0.0116; under C82U A120U A145G, 0.167. As for C82U A111G A120G A145G C150U U176C, the figure is 0.0166; as for C82A A111U A120G A145C C150A C169U U176A, 0.0189; as for C82G C150U C169A U176A, 0.0176. For the variant A111G A120U C150U C169A U176C, the reverse-splicing fitness was 0.00257. As for C82A A111C A120U C169U U176G, the figure is 0.00199. As for C82G A111G A120C A145G U176A, the figure is 0.0236; as for C82G A120U A145C C150A C169U U176G, 0.00162; as for A111U A120G A145C C150G U176G, 0.00302. Under A120G A145G C150G U176A stands 0.0423. On to C82G A111C A120U C150G C169G, for which the reverse-splicing fitness came to 0.00669. As for C82G A111G A120C A145U C150G C169U, the figure is 0.00899; as for A111G A120G A145G C150U U176G, 0.00986; as for C82U A111C A120U A145G C150A U176G, 0.00319. Under C82A A111G A120C C169G U176C stands 0.0237; under A111U A120G C169G, 0.218. Under C82A A111G A120C A145C C169U U176G stands 0.00478; under C82A A111U A120U A145C C150A C169A, 0.00277; under C82A A111G A120C A145U C150A C169G U176G, 0.00642. In the case of C169G, the reverse-splicing fitness was found to be 0.323. Under C82A A111U A120C A145G C150A C169U U176A stands 0.019; under A111U A120G A145U C150G C169A U176A, 0.0103; under C82A A111U A120C A145C C150A C169A U176A, 0.0206.

For C82A A120C A145U C150G C169U U176A, the reverse-splicing fitness was determined as 0.00709. Turning to C82U A111U A120G A145C C150U, the reverse-splicing fitness is 0.0086.
